# Measured values from publication PMC4859805, “Molecular mechanism of activation-triggered subunit exchange in Ca^2+/calmodulin-dependent protein kinase II” (eLife, 2016).
# B1: Peptide B (human CaMKII-α 290-309, unphosphorylated, unlabeled) [human] / human CaMKII-α hub domain [human] (parent complex)
# chain 1: LKKFNARRKLKGAILTTMLA
# chain 2: VRKQEIIKVTEQLIEAISNGDFESYTKMCDPGMTAFEPEALGNLVEGLDFHRFYFENLWSRNSKPVHTTILNPHIHLMGDESACIAYIRITQYLDAGGIPRTAQSEETRVWHRRDGKWQIVHFHRSGAPSV
# Variants of: B1
# Assay: fluorescence polarisation competition; point read at 500 µM unlabeled peptide; 2 nM labeled peptide A bound to 30 µM hub; lower polarization = more labeled peptide competed off; parent: 150; read off a plot
row,response,Variant
1,~180,chain 1 K11E
2,~160,chain 1 R7E
3,~210,"chain 1 K3E, chain 1 R7E, chain 1 K11E"
